The target in the series is T1, MEG-3 HMGL- (Caenorhabditis elegans, UniProt Q9TXM1 1-862, F705A;Y708A;Y713A;N725A).
T1 sequence: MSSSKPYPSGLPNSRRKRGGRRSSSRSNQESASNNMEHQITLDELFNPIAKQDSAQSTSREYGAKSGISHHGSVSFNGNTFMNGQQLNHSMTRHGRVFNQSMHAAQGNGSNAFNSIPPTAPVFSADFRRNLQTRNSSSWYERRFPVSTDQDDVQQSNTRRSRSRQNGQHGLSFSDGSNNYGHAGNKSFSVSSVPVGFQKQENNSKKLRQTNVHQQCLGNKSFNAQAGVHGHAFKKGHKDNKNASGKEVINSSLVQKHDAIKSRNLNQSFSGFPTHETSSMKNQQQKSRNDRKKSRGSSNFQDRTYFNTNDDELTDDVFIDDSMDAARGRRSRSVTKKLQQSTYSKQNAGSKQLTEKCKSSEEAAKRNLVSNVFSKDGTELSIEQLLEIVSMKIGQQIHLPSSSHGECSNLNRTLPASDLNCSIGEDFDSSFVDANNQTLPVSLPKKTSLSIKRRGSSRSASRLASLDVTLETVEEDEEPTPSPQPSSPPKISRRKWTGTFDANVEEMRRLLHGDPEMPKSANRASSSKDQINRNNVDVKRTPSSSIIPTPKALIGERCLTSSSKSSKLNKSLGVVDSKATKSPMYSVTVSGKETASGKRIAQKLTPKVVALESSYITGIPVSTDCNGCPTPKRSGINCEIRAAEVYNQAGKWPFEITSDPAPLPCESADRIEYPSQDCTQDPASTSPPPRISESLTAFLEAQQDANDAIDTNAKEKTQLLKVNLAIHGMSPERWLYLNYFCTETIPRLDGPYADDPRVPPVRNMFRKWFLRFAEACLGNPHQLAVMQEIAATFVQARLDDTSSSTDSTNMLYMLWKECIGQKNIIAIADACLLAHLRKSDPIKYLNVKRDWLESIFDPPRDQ
The experiment in a line: filter binding; high affinity, similar to wild type; Kd only in figure; 50 nM RNA, 3.75 mM HEPES (stock pH 7.4), 150 mM NaCl, 0.9 mM beta-mercaptoethanol, 1.5% glycerol, 10 mM Tris HCl, 30 min, room temperature. Conditions: protein: recombinant; tags: N-terminal 6xHis (pET28a); label: 3' fluorescein; single strand.

Regarding UUUUUUUUUUUUUUUUUUUUUUUUUUUUUU (ssRNA) [30U RNA (poly-U30)], the binding result is given as “binds”.

The record behind these values is doi:10.1101/2020.10.15.340570, “Coordination of RNA and protein condensation by the P granule protein MEG-3”.
